From US9937235B2, “Lipidated peptides as anti-obesity agents” (USTAV ORGANICKE CHEMIE A BIOCHEMIE AKADEMIE VED CR, V.V.I, priority 2012, dated 2018) come the findings set out here.

For one test, the system named is fasted C57BL/6 mice. Put plainly: Food intake in fasted mice after SC administration. Particulars: fasted C57BL/6 mice, 5 mg/kg SC, 45 min. It is filed as in vivo, mouse. The essentials:
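Male C57BL/6 mice, food-deprived 17 h, received saline, PrRP or lipidated analogs either SC at 1-10 mg/kg or ICV into the third ventricle at 4 nmol/mouse.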

In test [1] the target is T1, rat PrRP receptor (GPR10) in RC-4B/C cells (Rattus norvegicus, UniProt Q64121).
T1 construct: host or cells: RC-4B/C rat pituitary cell line
T1 sequence (Q64121 1-370): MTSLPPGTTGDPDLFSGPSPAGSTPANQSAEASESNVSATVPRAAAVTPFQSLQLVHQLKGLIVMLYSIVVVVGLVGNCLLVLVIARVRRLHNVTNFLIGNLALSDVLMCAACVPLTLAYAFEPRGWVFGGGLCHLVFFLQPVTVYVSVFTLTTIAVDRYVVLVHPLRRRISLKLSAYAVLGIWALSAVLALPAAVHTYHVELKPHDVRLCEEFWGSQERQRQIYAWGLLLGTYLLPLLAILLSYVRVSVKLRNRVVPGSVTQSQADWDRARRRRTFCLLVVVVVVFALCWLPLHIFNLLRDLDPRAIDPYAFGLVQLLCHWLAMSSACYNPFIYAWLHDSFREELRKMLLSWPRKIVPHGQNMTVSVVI
As to the kind of experiment: Competitive binding to rat pituitary RC-4B/C cells. How it is done:
Competitive binding experiments were performed according to Motulsky and Neubig (Motulsky, A., et al., “Analyzing radioligand binding data,” Curr Protoc Neurosci, Chapter 7, Unit 7.5, 2002). The rat pituitary cell line RC-4B/C (ATCC, Manassas, USA) was grown on 24-well plates which had their bottom coated with polyethyleneimine. The cells were grown to the optimal density of 300-450 thousand per well. […] Plates were incubated for 60 minutes at room temperature. After incubation, the cells were solubilized in 0.1 mol/l solution of NaOH and the radioactivity bound to the cells was counted using a γ-counter. The experiments were performed in duplicate and repeated at least three times. For evaluation of competitive binding experiments, the program Graph Pad Prism Software (San Diego, Calif., USA) was used. A method of nonlinear regression assuming one-site binding was used.

Test [2] concerns the target T2, human PrRP receptor, GPR10, transfected in CHO cells (human, UniProt P49683 1-370).
T2 construct: whole, on cells; also called human GPR10 receptor; the human receptor GPR10 in CHO cells
T2 sequence (looked up): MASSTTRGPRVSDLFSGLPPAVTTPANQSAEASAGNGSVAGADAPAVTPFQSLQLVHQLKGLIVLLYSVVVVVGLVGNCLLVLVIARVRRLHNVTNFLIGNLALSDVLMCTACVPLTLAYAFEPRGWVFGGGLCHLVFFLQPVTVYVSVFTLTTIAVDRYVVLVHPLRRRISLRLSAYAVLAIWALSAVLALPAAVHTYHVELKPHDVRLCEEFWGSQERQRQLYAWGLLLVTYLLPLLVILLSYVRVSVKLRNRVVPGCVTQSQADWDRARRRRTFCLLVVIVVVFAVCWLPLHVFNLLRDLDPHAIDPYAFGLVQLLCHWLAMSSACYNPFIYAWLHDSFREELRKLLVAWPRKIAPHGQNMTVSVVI
As to the kind of experiment: competition with 125I-human PrRP31 on CHO cells with transfected human GPR10. Summed up:
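Incubation lasted 60 min at room temperature. Cells were then solubilised in 0.1 mol/l NaOH and bound radioactivity γ-counted; duplicates, at least three repeats.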

Test [3] addresses T3, rat PrRP receptor in RC-4B/C cells (rat, UniProt Q64121 1-370).
T3 construct: whole, on cells; also called the rat receptor; GPR10
T3 sequence (looked up): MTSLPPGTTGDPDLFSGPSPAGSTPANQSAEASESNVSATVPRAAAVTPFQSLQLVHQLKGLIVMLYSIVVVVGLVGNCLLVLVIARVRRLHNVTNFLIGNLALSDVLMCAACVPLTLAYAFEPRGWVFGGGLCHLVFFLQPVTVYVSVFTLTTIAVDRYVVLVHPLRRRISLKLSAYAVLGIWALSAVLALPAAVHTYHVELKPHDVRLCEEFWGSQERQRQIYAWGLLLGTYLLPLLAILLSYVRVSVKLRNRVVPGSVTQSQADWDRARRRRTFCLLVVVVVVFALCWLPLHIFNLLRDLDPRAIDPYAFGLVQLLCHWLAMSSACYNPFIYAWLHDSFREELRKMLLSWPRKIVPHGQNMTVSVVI
Put plainly: competition with 125I-rat PrRP31 on RC-4B/C cells.

The mark [4] stands for this setting: rat RC-4B/C cells, Table 5, read-out: C-4B/C cells ^25I-rat PrRP31 Ki.

Read-outs that look alike come from different tables or passages of the source. Where a SMILES comes first, the peptide text is derived from it. Where no end group is shown, it is not given here. [ ]: non-standard residue; d: D form. The star is where a group is joined. Phe(F5) = N[C@@H](Cc1c(F)c(F)c(F)c(F)c1F)C(=O)O; Palmitoyl = CCCCCCCCCCCCCCCC(=O)*; Myristoyl = CCCCCCCCCCCCCC(=O)*; PheCl2 = dichlorophenylalanine; PheNO2 = nitrophenylalanine; NMeA = CN[C@@H](C)C(=O)O; Nle = CCCC[C@H](N)C(=O)O; Sar = CNCC(=O)O

Consider `CCCCCCCCCCCCCCCC(=O)N[C@@H](CO)C(=O)N[C@@H](CCCNC(=N)N)C(=O)N[C@@H](C)C(=O)N[C@@H](Cc1c[nH]cn1)C(=O)N[C@@H](CCC(N)=O)C(=O)N[C@@H](Cc1c[nH]cn1)C(=O)N[C@@H](CO)C(=O)N[C@@H](CCCC)C(=O)N[C@@H](CCC(=O)O)C(=O)N[C@H](C(=O)N[C@@H](CCCNC(=N)N)C(=O)N[C@H](C(=O)N1CCC[C@H]1C(=O)N[C@@H](CC(=O)O)C(=O)N[C@H](C(=O)N[C@@H](CC(N)=O)C(=O)N1CCC[C@H]1C(=O)N[C@@H](C)C(=O)N[C@@H](Cc1c[nH]c2ccccc12)C(=O)N[C@@H](Cc1ccc(O)cc1)C(=O)N[C@H](C(=O)NCC(=O)N[C@@H](CCCNC(=N)N)C(=O)NCC(=O)N[C@H](C(=O)N[C@@H](CCCNC(=N)N)C(=O)N1CCC[C@H]1C(=O)N[C@H](C(=O)NCC(=O)N[C@@H](CCCNC(=N)N)C(=O)N[C@@H](Cc1ccccc1)C(N)=O)C(C)C)[C@@H](C)CC)[C@@H](C)O)[C@@H](C)CC)[C@@H](C)O)[C@@H](C)O` [Analog 19] (Palmitoyl-SRAHQHS[Nle]ETRTPDINPAWYTGRGIRPVGRF-NH2), for which the “Food intake in mice (5 mg/kg SC) % saline-treated group (45 min)” value in the test on fasted C57BL/6 mice turned out to be 2%. The Ki in test [1] (setting [4]) came out at 0.51 ± 0.16 nM. Consider `CCCCCCCCCCCCCC(=O)N[C@H](C(=O)N1CCC[C@H]1C(=O)N[C@@H](CC(=O)O)C(=O)N[C@H](C(=O)N[C@@H](CC(N)=O)C(=O)N1CCC[C@H]1C(=O)N[C@@H](C)C(=O)N[C@@H](Cc1c[nH]c2ccccc12)C(=O)N[C@@H](Cc1ccc(O)cc1)C(=O)N(C)[C@@H](C)C(=O)N[C@@H](CO)C(=O)N[C@@H](CCCNC(=N)N)C(=O)NCC(=O)N[C@H](C(=O)N[C@@H](CCCNC(=N)N)C(=O)N1CCC[C@H]1C(=O)N[C@H](C(=O)NCC(=O)N[C@@H](CCCNC(=N)N)C(=O)N[C@@H](Cc1ccccc1)C(N)=O)C(C)C)[C@@H](C)CC)[C@@H](C)CC)[C@@H](C)O` [Analog 41] (Myristoyl-TPDINPAWY[NMeA]SRGIRPVGRF-NH2), for which the Ki in test [1] (setting [4]) was 0.46 ± 0.05 nM. As for `CCCCCCCCCCCCCC(=O)N[C@H](C(=O)N1CCC[C@H]1C(=O)N[C@@H](CC(=O)O)C(=O)N[C@H](C(=O)N[C@@H](CC(N)=O)C(=O)N1CCC[C@H]1C(=O)N[C@@H](C)C(=O)N[C@@H](Cc1c[nH]c2ccccc12)C(=O)N[C@@H](Cc1ccc(O)cc1)C(=O)N[C@@H](C)C(=O)N[C@@H](CO)C(=O)N[C@@H](CCCNC(=N)N)C(=O)NCC(=O)N[C@H](C(=O)N[C@@H](CCCNC(=N)N)C(=O)N1CCC[C@H]1C(=O)N[C@H](C(=O)NCC(=O)N[C@@H](CCCNC(=N)N)C(=O)N[C@@H](Cc1ccccc1)C(N)=O)C(C)C)[C@@H](C)CC)[C@@H](C)CC)[C@@H](C)O` [Analog 13] (Myristoyl-TPDINPAWYASRGIRPVGRF-NH2), the Ki in test [1] (^125I-rat PrRP31, RC-4B/C cells, Table 3, read-out: ^125I-rat PrRP31 Ki) was 0.41 ± 0.13 nM.

Take [code f][code r]GVPRIGRGTYWAPNIDPT-NH2 [analog no. 36]: the Ki turned out to be 6290 nM in test [2] and 5200 nM in test [3]. The matching figures for SRAHQHS[Nle]ETRTPDINPAWYTGRGIRPVGR[PheNO2]-NH2 [analog no. 27]: 4.8 nM and 19.9 nM. For Palmitoyl-SRAHQHS[Nle]ETRTPDINPAWYTGRGIRPVGR[Phe(F5)]-NH2 [analog no. 33], in that order: 1.92 nM and 0.51 nM. For Palmitoyl-SRAHQHS[Nle]ETRTPDINPAWYTGRGIRPVGR[PheCl2]-NH2 [analog no. 26], in that order: 1.05 nM and 1.3 nM.

As for Myristoyl-SHQRPADTHWYPRG[Nle]FPTIGRITARNGEVSR (printed without a C-terminal amide) [analog no. 31], the Ki came to 262 nM in test [2] and 123 nM in test [3].

B1: analog no. 41 (peptide)
peptide: Myristoyl-TPDINPAWY[NMeA]SRGIRPVGRF-NH2
SMILES: CCCCCCCCCCCCCC(=O)N[C@H](C(=O)N1CCC[C@H]1C(=O)N[C@@H](CC(=O)O)C(=O)N[C@H](C(=O)N[C@@H](CC(N)=O)C(=O)N1CCC[C@H]1C(=O)N[C@@H](C)C(=O)N[C@@H](Cc1c[nH]c2ccccc12)C(=O)N[C@@H](Cc1ccc(O)cc1)C(=O)N(C)[C@@H](C)C(=O)N[C@@H](CO)C(=O)N[C@@H](CCCNC(=N)N)C(=O)NCC(=O)N[C@H](C(=O)N[C@@H](CCCNC(=N)N)C(=O)N1CCC[C@H]1C(=O)N[C@H](C(=O)NCC(=O)N[C@@H](CCCNC(=N)N)C(=O)N[C@@H](Cc1ccccc1)C(N)=O)C(C)C)[C@@H](C)CC)[C@@H](C)CC)[C@@H](C)O
As to B1, the Ki in test [2] was 2.1 nM; in test [3] it was 0.46 nM. The matching figures for Myristoyl-SRAHQHS[Nle]ETRTPDINPAWYTGRGIRPVGR[PheNO2]-NH2 [analog no. 28]: 1.59 nM and 1.97 nM. For the molecule Palmitoyl-SRAHQHS[Nle]ETRTPDINPAWYTGRGIRPVGR[PheNO2]-NH2 [analog no. 29], the Ki in test [2] was 0.77 nM; in test [3], 0.58 nM.

B2: analog no. 39 (peptide)
peptide: Myristoyl-TPDINPAWYTGR[Sar]IRPVGRF-NH2
SMILES: CCCCCCCCCCCCCC(=O)N[C@H](C(=O)N1CCC[C@H]1C(=O)N[C@@H](CC(=O)O)C(=O)N[C@H](C(=O)N[C@@H](CC(N)=O)C(=O)N1CCC[C@H]1C(=O)N[C@@H](C)C(=O)N[C@@H](Cc1c[nH]c2ccccc12)C(=O)N[C@@H](Cc1ccc(O)cc1)C(=O)N[C@H](C(=O)NCC(=O)N[C@@H](CCCNC(=N)N)C(=O)N(C)CC(=O)N[C@H](C(=O)N[C@@H](CCCNC(=N)N)C(=O)N1CCC[C@H]1C(=O)N[C@H](C(=O)NCC(=O)N[C@@H](CCCNC(=N)N)C(=O)N[C@@H](Cc1ccccc1)C(N)=O)C(C)C)[C@@H](C)CC)[C@@H](C)O)[C@@H](C)CC)[C@@H](C)O
Regarding B2, the values for the Ki in test [2] and in test [3] were 3.12 nM and 0.32 nM, respectively. For Myristoyl-SRAHQHS[Nle]ETRTPDINPAWYTGRGIRPVGR[PheCl2]-NH2 [analog no. 25], in that order: 0.95 nM and 1.79 nM.

As to SRAHQHS[Nle]ETRTPDINPAWYTGRGIRPVGR[Phe(F5)]-NH2 [analog no. 32], the Ki in test [2] turned out to be 8.59 nM; in test [3] it was 9.69 nM.

B3: analog no. 38 (peptide)
peptide: TPDINPAWYTGR[Sar]IRPVGRF-NH2
modifications: N-terminus assumed
SMILES: CC[C@H](C)[C@H](NC(=O)CN(C)C(=O)[C@H](CCCNC(=N)N)NC(=O)CNC(=O)[C@@H](NC(=O)[C@H](Cc1ccc(O)cc1)NC(=O)[C@H](Cc1c[nH]c2ccccc12)NC(=O)[C@H](C)NC(=O)[C@@H]1CCCN1C(=O)[C@H](CC(N)=O)NC(=O)[C@@H](NC(=O)[C@H](CC(=O)O)NC(=O)[C@@H]1CCCN1C(=O)[C@@H](N)[C@@H](C)O)[C@@H](C)CC)[C@@H](C)O)C(=O)N[C@@H](CCCNC(=N)N)C(=O)N1CCC[C@H]1C(=O)N[C@H](C(=O)NCC(=O)N[C@@H](CCCNC(=N)N)C(=O)N[C@@H](Cc1ccccc1)C(N)=O)C(C)C
Regarding B3, the Ki in test [2] came to 4.51 nM; in test [3] it was 7.94 nM.
